This assay deals with endogenous TRPM2 of mouse brain (mouse (endogenous in brain), UniProt Q91YD4 1-1506). As to the kind of experiment: co-IP.

The values that follow come from publication doi:10.1101/2021.07.29.454247 (bioRxiv, 2021).

endogenous TRPM2 of mouse brain, sequence (Q91YD4 whole entry): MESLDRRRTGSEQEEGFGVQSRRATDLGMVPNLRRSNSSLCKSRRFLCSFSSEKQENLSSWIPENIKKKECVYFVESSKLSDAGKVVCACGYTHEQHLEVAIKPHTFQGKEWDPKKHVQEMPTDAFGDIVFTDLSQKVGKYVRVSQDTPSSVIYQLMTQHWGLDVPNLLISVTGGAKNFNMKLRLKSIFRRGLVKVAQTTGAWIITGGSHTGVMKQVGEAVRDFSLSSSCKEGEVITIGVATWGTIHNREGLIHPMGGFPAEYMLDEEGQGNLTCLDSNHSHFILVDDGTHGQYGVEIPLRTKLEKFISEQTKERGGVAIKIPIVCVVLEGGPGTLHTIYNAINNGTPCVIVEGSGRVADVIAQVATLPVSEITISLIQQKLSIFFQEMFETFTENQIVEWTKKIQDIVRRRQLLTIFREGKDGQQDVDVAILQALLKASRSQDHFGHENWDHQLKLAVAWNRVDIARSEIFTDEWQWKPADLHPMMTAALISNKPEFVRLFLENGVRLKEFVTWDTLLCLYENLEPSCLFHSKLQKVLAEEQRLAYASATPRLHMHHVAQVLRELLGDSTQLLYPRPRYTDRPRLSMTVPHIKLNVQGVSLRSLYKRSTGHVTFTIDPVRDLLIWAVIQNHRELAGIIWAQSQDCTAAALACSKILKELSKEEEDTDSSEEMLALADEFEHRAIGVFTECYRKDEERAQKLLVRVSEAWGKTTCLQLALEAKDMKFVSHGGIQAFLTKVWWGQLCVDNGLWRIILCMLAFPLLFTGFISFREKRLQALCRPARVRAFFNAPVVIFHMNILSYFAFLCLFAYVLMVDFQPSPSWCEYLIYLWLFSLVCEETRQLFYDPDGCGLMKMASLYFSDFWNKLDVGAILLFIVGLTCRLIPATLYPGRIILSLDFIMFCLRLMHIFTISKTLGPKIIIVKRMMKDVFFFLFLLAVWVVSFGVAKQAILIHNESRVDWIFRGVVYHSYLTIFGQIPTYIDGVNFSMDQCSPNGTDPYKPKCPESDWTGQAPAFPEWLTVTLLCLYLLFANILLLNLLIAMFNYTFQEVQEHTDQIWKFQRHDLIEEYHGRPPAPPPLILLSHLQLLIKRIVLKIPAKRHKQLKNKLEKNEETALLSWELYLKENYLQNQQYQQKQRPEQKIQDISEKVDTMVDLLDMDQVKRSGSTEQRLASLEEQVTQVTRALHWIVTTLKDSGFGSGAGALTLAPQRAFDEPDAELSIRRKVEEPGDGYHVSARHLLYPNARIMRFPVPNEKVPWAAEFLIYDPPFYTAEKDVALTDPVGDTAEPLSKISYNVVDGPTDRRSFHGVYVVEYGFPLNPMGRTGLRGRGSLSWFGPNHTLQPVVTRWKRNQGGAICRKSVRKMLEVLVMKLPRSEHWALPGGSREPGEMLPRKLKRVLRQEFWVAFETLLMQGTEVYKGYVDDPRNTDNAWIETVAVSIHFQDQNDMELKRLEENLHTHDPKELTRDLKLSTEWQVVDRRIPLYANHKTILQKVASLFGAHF

B1: endogenous PKCγ of mouse brain and neurons (enzyme)
chain: not shown
Take B1: the “fold of PKCγ pulled down by anti-TRPM2, MCAO against sham” value was around 1.5 fold.
